What all share (conditions): both partners purified
In test [1] the target is T1, factor inhibiting HIF-1 (FIH-1) (human, UniProt Q9NWT6 1-349).
T1 construct: N-terminal His6 tag and TEV site (ENLYFQ) cleaved with TEV protease; Dimer by SEC and SEC-MALS (about 80 kDa); also called FIH-1 WT; source: E. coli BL21 (DE3), purified (Ni-NTA, TEV cleavage, SEC); not shown: His6, N-terminal, cleaved
Kind of test: ITC; Mint3 construct in the syringe (150 μM, 25 injections of 1.5 μl) titrated into 30 μM FIH-1 in the cell; 25 °C; 35 mM Na-phosphate pH 7.5, 300 mM NaCl, 500 μM αKG; single set of sites model. (ITC needs no label: the signal is the heat of the interaction.)

Test [2] addresses T2, factor inhibiting HIF-1 (FIH-1), full-length (human, UniProt Q9NWT6 1-349).
T2 construct: Dimer by SEC and SEC-MALS; The TEV site ENLYFQ lay between the His6 tag and FIH-1; also called FIH-1 WT; source: E. coli BL21 (DE3), purified (Ni-NTA, TEV cleavage, SEC); not shown: His6, N-terminal, cleaved
Kind of test: ITC; MicroCal iTC200, 25 °C; 150 μM Mint3 in the syringe, 30 μM FIH-1 in the cell, 25 injections of 1.5 μl; 35 mM Na-phosphate pH 7.5, 300 mM NaCl, 500 μM αKG; single set of sites model; for Figure 4 also in the absence of αKG and/or with EDTA.

The next test addresses T3, FIH-1 Y71A (human, UniProt Q9NWT6 1-349, Tyr71 replaced with Ala).
T3 construct: also called Tyr71 replaced with Ala; source: E. coli BL21 (DE3), purified (mutants prepared as FIH-1); not shown: His6, N-terminal, cleaved
Described as above.

The next test has as its target T4, FIH-1 D248A (human, UniProt Q9NWT6 1-349, Asp248 replaced with Ala).
T4 construct: also called Asp248 replaced with Ala (negative control); source: E. coli BL21 (DE3), purified (mutants prepared as FIH-1); not shown: His6, N-terminal, cleaved
The description is as above.

A further test addresses T5, FIH-1 N171A (human, UniProt Q9NWT6 1-349, Asn171 replaced with Ala).
T5 construct: also called Asn171 replaced with Ala; source: E. coli BL21 (DE3), purified (mutants prepared as FIH-1); not shown: His6, N-terminal, cleaved
The description is as above.

The next test has as its target T6, FIH-1 E29A (human, UniProt Q9NWT6 1-349, Glu29 replaced with Ala).
T6 construct: also called Glu29 replaced with Ala (negative control); source: E. coli BL21 (DE3), purified (mutants prepared as FIH-1); not shown: His6, N-terminal, cleaved
The test is described as above.

The target of another test is T7, FIH-1 E79A (human, UniProt Q9NWT6 1-349, Glu79 replaced with Ala).
T7 construct: also called Glu79 replaced with Ala; source: E. coli BL21 (DE3), purified (mutants prepared as FIH-1); not shown: His6, N-terminal, cleaved
The test is described as above.

Another test has as its target T8, FIH-1 E250A (human, UniProt Q9NWT6 1-349, Glu250 replaced with Ala).
T8 construct: also called Glu250 replaced with Ala (negative control); source: E. coli BL21 (DE3), purified (mutants prepared as FIH-1); not shown: His6, N-terminal, cleaved
The test is described as above.

For the next test, the target named is T9, FIH-1 K75A (human, UniProt Q9NWT6 1-349, Lys75 replaced with Ala).
T9 construct: also called Lys75 replaced with Ala; source: E. coli BL21 (DE3), purified (mutants prepared as FIH-1); not shown: His6, N-terminal, cleaved
The test is described as above.

T2 sequence (Q9NWT6 whole entry): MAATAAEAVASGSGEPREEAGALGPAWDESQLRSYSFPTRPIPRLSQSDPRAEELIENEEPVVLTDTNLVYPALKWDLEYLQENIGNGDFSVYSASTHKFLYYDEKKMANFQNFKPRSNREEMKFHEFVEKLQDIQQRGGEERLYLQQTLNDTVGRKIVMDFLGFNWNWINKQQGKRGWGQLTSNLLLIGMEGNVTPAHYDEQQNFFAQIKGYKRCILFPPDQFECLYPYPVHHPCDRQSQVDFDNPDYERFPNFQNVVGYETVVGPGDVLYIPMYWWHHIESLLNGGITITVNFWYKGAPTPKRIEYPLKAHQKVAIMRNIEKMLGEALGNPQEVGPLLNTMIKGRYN
T1 sequence (Q9NWT6 whole entry): as above
T6 sequence (Q9NWT6 whole entry E29A): as the sequence (Q9NWT6 whole entry) above, with E29A counted along it
T9 sequence (Q9NWT6 whole entry K75A): as the sequence (Q9NWT6 whole entry) above, with K75A counted along it
T3 sequence (Q9NWT6 whole entry Y71A): as the sequence (Q9NWT6 whole entry) above, with Y71A counted along it
T7 sequence (Q9NWT6 whole entry E79A): as the sequence (Q9NWT6 whole entry) above, with E79A counted along it
T5 sequence (Q9NWT6 whole entry N171A): as the sequence (Q9NWT6 whole entry) above, with N171A counted along it
T8 sequence (Q9NWT6 whole entry E250A): as the sequence (Q9NWT6 whole entry) above, with E250A counted along it
T4 sequence (Q9NWT6 whole entry D248A): as the sequence (Q9NWT6 whole entry) above, with D248A counted along it

B1: Mint3 fragment (1-92) (domain or fragment, human, UniProt O96018 1-92, looked up)
chain: MDFPTISRSPSGPPAMDLEGPRDILVPSEDLTPDSQWDPMPGGPGSLSRMELDESSLQELVQQFEALPGDLVGPSPGGAPCPLHIATGHGLA
notes: human Mint3 (X11gamma/APBA3), residues 1-92; source: E. coli BL21 (DE3), purified (mutants/fragments of Mint3 prepared as Mint3NT)
A word on the Kd: it is a measure of binding affinity in units of concentration. A high value points to weaker binding. B1 showed a Kd in [1] of 9000 ± 900 nM.

B2: Mint3 fragment (1–92) (domain or fragment, human, UniProt O96018 1-92, looked up)
chain: MDFPTISRSPSGPPAMDLEGPRDILVPSEDLTPDSQWDPMPGGPGSLSRMELDESSLQELVQQFEALPGDLVGPSPGGAPCPLHIATGHGLA
notes: source: E. coli BL21 (DE3), purified (mutants/fragments prepared as Mint3NT)
By stoichiometry N is commonly meant a count of units in the complex or per binding partner. Take B2: the “stoichiometry N” value in test [2] is around 0.5.

B3: short peptide of Mint3 (93–117) (peptide, UniProt O96018 93-117, looked up)
chain: SQEIADAHGLLSAEAGRDDLLGLLH
notes: The methods say only that mutants/fragments of Mint3 were prepared as Mint3NT (E. coli, C-terminal His6); the results call this a peptide and speak of synthesis for the peptide 78-88, so it may be synthetic
As for B3, in [2], the equilibrium dissociation constant (Kd) amounted to 3000 ± 600 nM and the “stoichiometry N” value was around 0.5.

B4: Mint3NT, N-terminal fragment (1-214) of Mint3 (domain or fragment, human, UniProt O96018 1-214, looked up)
chain: MDFPTISRSPSGPPAMDLEGPRDILVPSEDLTPDSQWDPMPGGPGSLSRMELDESSLQELVQQFEALPGDLVGPSPGGAPCPLHIATGHGLASQEIADAHGLLSAEAGRDDLLGLLHCEECPPSQTGPEEPLEPAPRLLQPPEDPDEDSDSPEWVEGASAEQEGSRSSSSSPEPWLETVPLVTPEEPPAGAQSPETLASYPAPQEVPGPCDHED
notes: human Mint3 (X11gamma/APBA3), residues 1-214; also called 1-214 (NT); Mint3(1-214); source: E. coli BL21 (DE3), purified (Ni-NTA, SEC; monomer fraction)
For B4, in test [1], the affinity, expressed as Kd, was 520 ± 20 nM.

B5: Mint3NT, N-terminal fragment (1–214) of Mint3 (domain or fragment, human, UniProt O96018 1-214, looked up)
chain: MDFPTISRSPSGPPAMDLEGPRDILVPSEDLTPDSQWDPMPGGPGSLSRMELDESSLQELVQQFEALPGDLVGPSPGGAPCPLHIATGHGLASQEIADAHGLLSAEAGRDDLLGLLHCEECPPSQTGPEEPLEPAPRLLQPPEDPDEDSDSPEWVEGASAEQEGSRSSSSSPEPWLETVPLVTPEEPPAGAQSPETLASYPAPQEVPGPCDHED
notes: Mint3 (X11γ/APBA3), human, N-terminal fragment, residues 1-214; Uniformly 15N-labelled (M9 medium) for the NMR titration; No cleavage site is told for the C-terminal His6 tag; also called Mint3(1–214); 15N-Mint3NT; source: E. coli BL21 (DE3), purified (Ni-NTA, SEC; monomer fraction collected)
As for B5, the binding result with FIH-1 Y71A, with FIH-1 D248A, with FIH-1 N171A, in the test with FIH-1 E29A, with FIH-1 E79A and in the test with FIH-1 E250A was “binds” in each case. Besides, in the test with FIH-1 K75A, the binding result is reported as “binds”. In addition, the dH in [2] was -32.2 ± 0.7 kcal/mol. Besides, the “stoichiometry N” value in test [2] worked out at 0.48 ± 0.02.

B6: Mint3NTmut, Mint3NT (1–214) with the mutations … → AAASAAAGRD (domain or fragment, human, UniProt O96018 1-214, looked up)
chain: MDFPTISRSPSGPPAMDLEGPRDILVPSEDLTPDSQWDPMPGGPGSLSRMELDESSLQELVQQFEALPGDLVGPSPGGAPCPLHIATGHGLASQEIADAHAAASAAAGRDDLLGLLHCEECPPSQTGPEEPLEPAPRLLQPPEDPDEDSDSPEWVEGASAEQEGSRSSSSSPEPWLETVPLVTPEEPPAGAQSPETLASYPAPQEVPGPCDHED
notes: as for B2
Consider B6, for which, in [2], the Kd came to 1310 nM, the dH was -13.9 kcal/mol and the “stoichiometry N” value was around 0.5.

B7: Mint3(1–117), N-terminal half of Mint3NT (domain or fragment, human, UniProt O96018 1-117, looked up)
chain: MDFPTISRSPSGPPAMDLEGPRDILVPSEDLTPDSQWDPMPGGPGSLSRMELDESSLQELVQQFEALPGDLVGPSPGGAPCPLHIATGHGLASQEIADAHGLLSAEAGRDDLLGLLH
notes: as for B2
In the case of B7, in test [2], binding was characterised by a dissociation constant (Kd) of 650 ± 70 nM, the “dH relative to Mint3NT” value was around 0.5 and the “stoichiometry N” value was around 0.5.

For the origin of these results see PMC8571082, “Structural and thermodynamical insights into the binding and inhibition of FIH-1 by the N-terminal disordered region of Mint3” (The Journal of Biological Chemistry, 2021).
